Data reported in the supplement of paper PMC9732359.
± gives the uncertainty stated by the source.

Assay: protein stability index of a GFP-peptide fusion (yeast GPS) (PSI 1-4); higher = more stable; sorted into four equal gates, so the index is relative within each strain
How it was run: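 Tiled 17-residue yeast protein peptides were fused downstream of GFP in a plasmid that also expresses Cherry, and the pooled library was carried in yeast. Mid-log cultures in leucine-free medium were sorted into four equal gates by GFP/Cherry fluorescence ratio, and plasmids from each gate were PCR-amplified and Illumina-sequenced, with reads assigned to strains by barcodes. The protein stability index for each peptide was each gate's read frequency times its gate number, summed.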

Sequence | protein stability index (doa10∆) | protein stability index (pdr5∆) | protein stability index (san1∆) | protein stability index (ubr1∆)
TEIENYLLENNQVGTDE [YDL116W/NUP84] | 3.11 ± 0.11 | 2.9 ± 0.082 | 3.39 ± 0.072 | 2.84 ± 0.098
YVLYAKIVVLSRTGPVF [RRP43] | 1.29 ± 0.097 | 1.15 ± 0.077 | 1.11 ± 0.16 | 1.19 ± 0.06
DEEETAEGQTNSISDFL [RPN1] | 2.84 ± 0.14 | 3.13 ± 0.094 | 2.94 ± 0.078 | 3.04 ± 0.069
TVAVMSYSGYDIEDALV [RET1] | 2.7 ± 0.16 | 2.15 ± 0.11 | 1.97 ± 0.16 | 2.83 ± 0.072
RRSKQLINLAKTRVGSV [RPC82] | 3.25 ± 0.053 | 2.91 ± 0.062 | 2.95 ± 0.049 | 3.25 ± 0.044
LCQKSPVMADLNGGLQF [FAS2] | 2.79 ± 0.11 | 2.65 ± 0.17 | 2.94 ± 0.14 | 2.53 ± 0.2
TTTNTDQNNATMGEETA [SNF12] | 3.3 ± 0.076 | 3.37 ± 0.11 | 3.4 ± 0.076 | 3.21 ± 0.1
YILANHYLSRVLSDQVG [YJL039C/NUP192] | 2.87 ± 0.064 | 2.98 ± 0.078 | 2.72 ± 0.07 | 2.54 ± 0.049
TSQMDLARDTPSANNSS [RRP4] | 1.86 ± 0.042 | 1.46 ± 0.064 | 1.91 ± 0.077 | 1.51 ± 0.045
KVGQFDQVLNLCLTEFE [FAS1] | 2.75 ± 0.076 | 2.97 ± 0.062 | 2.73 ± 0.06 | 3.11 ± 0.038
LNTVLIADLDTEAEETS [RRP43] | 3.11 ± 0.08 | 2.87 ± 0.065 | 3.04 ± 0.047 | 3.21 ± 0.051
IAAKLINSGLYSVLLES [YML103C/NUP188] | 2.54 ± 0.099 | 2.08 ± 0.099 | 2.7 ± 0.076 | 2.67 ± 0.095
INSSNEALVQAFAFCIP [YCG1] | 2.18 ± 0.055 | 2.31 ± 0.051 | 2.49 ± 0.059 | 2.09 ± 0.041
GKIPTLKISLIQIFRAH [PRP8] | 1.72 ± 0.045 | 1.44 ± 0.044 | 1.33 ± 0.073 | 1.29 ± 0.041
SETDKRQFLHELRRPGV [RPO31] | 1.89 ± 0.056 | 1.73 ± 0.059 | 1.57 ± 0.16 | 1.57 ± 0.069
QDDEYVKDWLYDSRPLE [PRP8] | 3.25 ± 0.16 | 3.43 ± 0.11 | 3.18 ± 0.13 | 3.02 ± 0.068
QSSLDVAGLEDKFRKAC [SIR3] | 3.62 ± 0.14 | 3.18 ± 0.16 | 3.42 ± 0.13 | 3.06 ± 0.21
FEQPSQREEAKKVVKKA [RPL27A] | 2.95 ± 0.15 | 3.28 ± 0.13 | 3.13 ± 0.15 | 3.05 ± 0.14
MSLRHFGHLMHYGNEHI [RPN1] | 1.47 ± 0.04 | 1.38 ± 0.039 | 1.4 ± 0.066 | 1.33 ± 0.032
ANTNSVTSMEAAREKKI [YIL149C/MLP2] | 3 ± 0.077 | 3.05 ± 0.078 | 3 ± 0.049 | 3.01 ± 0.047
LANEERLSNEMHALKNR [RGR1] | 3.32 ± 0.12 | 3.42 ± 0.07 | 3.4 ± 0.059 | 3.66 ± 0.13
DMDPLAVSAASVVSMSN [SIR2] | 1.67 ± 0.065 | 2.31 ± 0.12 | 1.71 ± 0.18 | 2.19 ± 0.072
LGIEAARYSIIREINYT [RPO31] | 1.76 ± 0.13 | 1.66 ± 0.12 | 1.31 ± 0.24 | 1.53 ± 0.12
VKGDLLQEAIDFAQKEI [PRE10] | 2.9 ± 0.076 | 2.84 ± 0.066 | 3.2 ± 0.054 | 2.9 ± 0.048
DVDPEFYLKYVDIRVGK [RET1] | 3.31 ± 0.28 | 2.79 ± 0.16 | 2.4 ± 0.14 | 2.54 ± 0.1
YFFYASRPEYSCTFWSD [YJL039C/NUP192] | 1.22 ± 0.069 | 1.52 ± 0.084 | 1.31 ± 0.14 | 1.62 ± 0.054

Sequence | protein stability index (doa10∆) | protein stability index (pdr5∆) | protein stability index (san1∆) | protein stability index (ubr1∆)
EISASESKFILEALRQN [RRP45] | 2.94 ± 0.096 | 2.98 ± 0.12 | 2.88 ± 0.094 | 2.81 ± 0.074
PHNSKSLGFLQQSNKLH [RPN3] | 3.11 ± 0.059 | 3.07 ± 0.072 | 3.1 ± 0.053 | 3.26 ± 0.055
SPRFNVKIGDIEKWTAN [RPS22A] | 3.06 ± 0.082 | 3.23 ± 0.075 | 2.85 ± 0.065 | 3.34 ± 0.073
KHSVTEYIFEAHEIIKR [CDC53] | 2.32 ± 0.067 | 1.87 ± 0.049 | 2.68 ± 0.075 | 2.58 ± 0.051
DDFMHSETREKELESID [RPB4] | – | – | 2.74 ± 0.12 | 3.2 ± 0.19
ELHKKLVEAAKLLKIPK [YDL116W/NUP84] | 2.57 ± 0.13 | 2.24 ± 0.15 | 2.33 ± 0.22 | 2.49 ± 0.1
WIVVLPWFWLLPLWHLL [POP1] | 2.4 ± 0.092 | 1.21 ± 0.057 | 1.14 ± 0.13 | 1.07 ± 0.046
CAMSGLTADARSMIEHA [PUP2] | 2.3 ± 0.13 | 2.94 ± 0.18 | – | 2.64 ± 0.12
MSQGQSKKLDVTVEQLR [NSL1] | 2.64 ± 0.075 | 2.74 ± 0.075 | 2.7 ± 0.056 | 2.78 ± 0.075
SAGAVFKSSVEMGKTDK [YOR098C/NUP1] | 3.5 ± 0.095 | 3.25 ± 0.1 | 3.29 ± 0.058 | 3.47 ± 0.047
NFRILKSFTNDKIPLNY [SRB5] | 2.94 ± 0.054 | 2.77 ± 0.057 | 2.84 ± 0.04 | 2.91 ± 0.036
LEAPVKSIENPTQTKGN [YLR335W/NUP2] | 3.04 ± 0.077 | 3.17 ± 0.055 | 3.15 ± 0.051 | 2.95 ± 0.058
IRSSSVSLVAEATSNTN [MED4] | 1.89 ± 0.076 | 1.63 ± 0.061 | 2.12 ± 0.098 | 1.33 ± 0.036
EYQSLMSLKDKLLIQID [SMC1] | 2.13 ± 0.077 | 2.62 ± 0.082 | 2.41 ± 0.2 | 2.38 ± 0.092
KLGIESKQPNSAIRKCV [RPS23A] | 3.21 ± 0.11 | 3.25 ± 0.12 | 3.02 ± 0.12 | 3.41 ± 0.054
VTVVDTPPVVVVGVVGY [RPL3] | 1.17 ± 0.051 | 1.41 ± 0.061 | 1.26 ± 0.065 | 1.39 ± 0.048
TELTHHLLPRNEWIKAQ [QCR7] | 2.37 ± 0.068 | 2.16 ± 0.073 | 2.04 ± 0.12 | 1.85 ± 0.046
KIFWERLKEINGWEKYL [ISW2] | – | – | – | 1.46 ± 0.24
VKKVVKEQTEAAKKSEK [RPL34A] | 3.37 ± 0.14 | 3.4 ± 0.1 | 3.19 ± 0.038 | 3.31 ± 0.076
QIILDRFAPDNQVTDSS [SIR3] | – | 2.93 ± 0.13 | 2.94 ± 0.14 | 3.11 ± 0.098
SASVRALIENWAADSVS [FAS1] | 2.46 ± 0.078 | 2.48 ± 0.094 | 2.59 ± 0.097 | 2.76 ± 0.091
LNYGVYLNGTLIGSIRF [RET1] | 1.43 ± 0.07 | 2.29 ± 0.097 | 2.53 ± 0.088 | 2.71 ± 0.088
RNAEFKVSKNSTSFKNP [YMR153W/NUP53] | 2.79 ± 0.093 | 2.13 ± 0.062 | 2.14 ± 0.1 | 2.46 ± 0.076
GGRYVYPVHEAHKGQIV [SNU114] | 1.58 ± 0.12 | 2.97 ± 0.11 | 3.01 ± 0.054 | 2.89 ± 0.063
LEAARSEKQNDEEAAGA [PRP8] | 2.37 ± 0.097 | 2.04 ± 0.078 | 2.61 ± 0.2 | 2.32 ± 0.078
TPIAGRFTPGSFTNYIT [RPS0A] | 3.01 ± 0.11 | 2.99 ± 0.072 | 2.97 ± 0.082 | 3.16 ± 0.1
